Source: patent publication US20250020645, “A4B1 BINDING APTAMERS” (University of Washington, published 2025)

Assays:
[1] = target: T1, Integrin alpha4beta1 on Jurkat cells (clone E6-1) (Homo sapiens, UniProt P13612;P05556 P13612:34-1032,P05556:21-798); assay: flow; apparent, 4 C; settings: tags: endogenous, ATCC cell line
Experimental: (§1) Binding assay: Jurkat cells were washed with DPBS and incubated with Zombie Violet (1:500, 10⁷ cells/mL, BioLegend) in DPBS for live/dead staining for 15 min at room temperature. After live/dead staining, cells were washed with aptamer washed buffer supplemented with 1% BSA to quench the remaining dye and aliquoted in a 96-well plate at 1-2e5 cells/well. For aptamer staining, cells were incubated with annealed aptamers at the indicated concentrations in 100 μL binding buffer (aptamer wash buffer supplemented with 1% BSA and 0.1 mg/ml yeast RNA) for 20-30 min at 4° C. For binding analysis at different temperatures, aptamers (diluted in binding buffer) and cells were separately incubated at the indicated temperatures for 20 min for equilibration. The equilibrated aptamer solutions were then added to the cells and allowed to incubate for 20-30 min. After incubation, cells were washed 2 times with 200 μL aptamer wash buffer supplemented with 1% BSA, resuspended in 200 μL aptamer wash buffer supplemented with 1% BSA and 0.2% PFA, and analyzed on an Attune NxT cytometer.

[2] = target: T1, Integrin alpha4beta1 on Jurkat cells …; assay: flow; apparent, 4 C; better retained binding at 20 and 37 C than parent; settings: tags: endogenous, ATCC cell line
Experimental: as §1

[3] = target: Integrin alpha4beta7, recombinant heterodimer (Homo sapiens, UniProt P13612;P26010 P13612:34-977,P26010:20-723); assay: BLI; negative control aptamer, 100 nM protein; settings: tags: His-tag; ACROBiosystems IT7-H52W4; label: biotin
Experimental: (§2) Bio-layer interferometry. BLI studies were performed on an Octet RED96 instrument (Sartorius of Göttingen, Germany) using streptavidin biosensors (Sartorius) as previously described (Cheng et al. (2022) J Am Chem Soc, 144, 13851-64). Briefly, wash buffer supplemented with 1% BSA, 0.1 mg/mL yeast tRNA, 0.1 mg/mL salmon sperm DNA, and 0.01% Tween-20 (Sigma) was used as the sample buffer for all steps. All steps were performed at 25° C. with sample agitation at 1000 rpm. Biosensors were allowed to equilibrate in buffer for at least 10 min before loading. For sensor loading, 50 nM biotinylated aptamers were loaded until a 0.5 nm threshold before performing rinse and baseline steps in buffer alone for 100 s each. Afterwards, aptamer-loaded sensors were associated with His-tagged human α4β1 (IT1-H52W1, ACROBiosystems of Beijing, China) or His-tagged human α4β7 (IT7-H52W4, ACROBiosystems) at concentrations and times indicated in the figures and captions. Lastly, sensors were transferred to wells containing buffer alone for dissociation. […] Kinetic constants were calculated for datasets with several analyte concentrations by conducting a global fit of the association and dissociation curves to a 1:1 ligand binding model. The quality of each fit was evaluated using R2 and χ2 values, which are listed in Table 6 for the appropriate datasets along with the calculated kinetic constants. […]

[4] = target: T2, Integrin alpha4beta1 (VLA-4, CD49d/CD29), recombinant heterodimer (Homo sapiens, UniProt P13612;P05556 P13612:34-977,P05556:21-728); assay: BLI; negative control aptamer, 100 nM protein; settings: tags: His-tag; ACROBiosystems IT1-H52W1; label: biotin
Experimental: as §2

[5] = target: T1, Integrin alpha4beta1 on Jurkat cells …; assay: competition; 50% block of 100 nM VCAM-1 binding to Jurkat cells; settings: tags: endogenous, ATCC cell line; label: biotin, FAM or Cy5
Experimental: CS1 peptide and VCAM-1 competition. For competition studies involving the CS1 peptide, a Tris-based wash buffer comprised of TBS (Fisher) supplemented with 4.5 g/L glucose, 5.5 mM MgCl², 0.9 mM CaCl², and 10 mM MnCl² was used instead of the normal DPBS-based wash buffer described above. Mn²⁺ has previously been described to support α4β1 binding to the fibronectin CS1 peptide (Masumoto and Hemler. (1993) Journal of Biological Chemistry, 268, 228-234), and as MnCl² precipitates in DPBS, a Tris-based wash buffer was thus required. Peptide stocks were prepared fresh in the Tris-based wash buffer at 20 mM prior to the competition studies and the exact concentration was measured using a QuantTag Biotin Quantification Kit (Vector Labs of Newark, CA). Live/dead and aptamer staining were carried out as described above, except cells were pre-blocked with varying concentrations of the SCR-b or CS1-b peptide in Tris-based wash buffer supplemented with 1% BSA (w/v) and 0.1 mg/mL yeast tRNA for 30 min at room temperature prior to spiking in aptamer and incubating for another 30 min at 4° C. As Tris can neutralize PFA, cells were resuspended in regular wash buffer 1% BSA with 0.5% PFA after washing before analyzing on the flow cytometer. […]

[6] = target: T2, Integrin alpha4beta1 (VLA-4, …); assay: BLI; 25 C, immobilised biotin-aptamer; settings: tags: His-tag; ACROBiosystems IT1-H52W1; label: biotin, FAM or Cy5
Experimental: (§3) Bio-layer interferometry. BLI studies were performed on an Octet RED96 instrument (Sartorius of Göttingen, Germany) using streptavidin biosensors (Sartorius) as previously described (Cheng et al. (2022) J Am Chem Soc, 144, 13851-64). Briefly, wash buffer supplemented with 1% BSA, 0.1 mg/mL yeast tRNA, 0.1 mg/mL salmon sperm DNA, and 0.01% Tween-20 (Sigma) was used as the sample buffer for all steps. All steps were performed at 25° C. with sample agitation at 1000 rpm. Biosensors were allowed to equilibrate in buffer for at least 10 min before loading. For sensor loading, 50 nM biotinylated aptamers were loaded until a 0.5 nm threshold before performing rinse and baseline steps in buffer alone for 100 s each. […] Kinetic constants were calculated for datasets with several analyte concentrations by conducting a global fit of the association and dissociation curves to a 1:1 ligand binding model. The quality of each fit was evaluated using R2 and χ2 values, which are listed in Table 6 for the appropriate datasets along with the calculated kinetic constants.
(§4) Table 6 lists BLI measured affinity kinetics of immobilized HR7A1, HR7A1.Tr1, and HR7A1.Tr2 aptamer binding to recombinant α4β1 protein. […] Values were calculated by performing a global fit of the binding curve data in FIG. 2B to a 1:1 binding model. […] The goodness of fit was evaluated by a reduced chi-square (χ2) and a R2 value approaching 1.

[7] = target: Integrin alpha4beta1 on B16F10 melanoma cells (Mus musculus, UniProt Q00651;P09055 Q00651:41-1039,P09055:21-798); assay: flow; apparent, 4 C; settings: tags: endogenous, ATCC cell line; label: biotin, FAM or Cy5; motif on top of a stem formed by flanking constant regions (predicted)
Experimental: (§5) Aptamer binding studies. While suspension H9, Jurkat, Raji, and K562 cells were harvested normally, adherent B16F10 cells were non-enzymatically dissociated with Versene (Gibco) prior to binding studies to prevent possible enzymatic cleavage of the α4β1 integrin that would affect aptamer binding. Once harvested, cells (2×10⁵) were pre-stained with Zombie Violet in DPBS for 15 min at room temperature, washed once with wash buffer supplemented with 1% BSA, and incubated with 100 μL folded FAM-labeled ssDNA pools or FAM/Cy5-labeled individual aptamers for 30 min at 4° C. in binding buffer at the indicated concentrations. For antibody co-staining, antibodies were added to the incubation with aptamers. For competitive binding studies, unique aptamers with different fluorescent labels were co-incubated on cells at different concentrations. Cells were then washed twice with 200 μL wash buffer 1% BSA to remove excess staining reagent. […]
FIGS. 16A, 16B illustrate that HR7A1 binds mouse α4β1. […] (16B) Flow cytometry binding curves of Cy5-labeled CD8.A3t, HR7A1, and Sgc4f to B16F10 cells, as determined by MFI. […] KD values were calculated by averaging the individual regression values of the independent experiments. […]

[8] = target: T1, Integrin alpha4beta1 on Jurkat cells …; assay: competition; 50% displacement of 20 nM Cy5-Sgc4f on Jurkat cells; settings: tags: endogenous, ATCC cell line; label: biotin, FAM or Cy5; motif on top of a stem formed by flanking constant regions (predicted)
Experimental: as §5, with “reagent. If biotinylated aptamers were used for primary staining, cells received a secondary stain with 100 μL fluorescently labeled streptavidin in wash buffer 1% BSA for 20 min at 4° C. and then washed twice as before. Lastly, stained cells were lightly fixed in 200 μL wash buffer 1% BSA with 0.1-0.5% […] (PFA) before immediate analysis via flow cytometry as described above.” for “reagent.”

[9] = target: T2, Integrin alpha4beta1 (VLA-4, …); assay: BLI; 25 C, immobilised biotin-aptamer, DPBS Ca/Mg + 5 mM MgCl2 + BSA/tRNA/ssDNA; settings: tags: His-tag; ACROBiosystems IT1-H52W1; label: biotin, FAM or Cy5; motif on top of a stem formed by flanking constant regions (predicted)
Experimental: as §3, §4

[10] = target: T1, Integrin alpha4beta1 on Jurkat cells …; assay: competition; 50% displacement of 20 nM Cy5-HR7A1 on Jurkat cells; settings: tags: endogenous, ATCC cell line; label: Cy5
Experimental: as §5, with “reagent. If biotinylated aptamers were used for primary staining, cells received a secondary stain with 100 μL fluorescently labeled streptavidin in wash buffer 1% BSA for 20 min at 4° C. and then washed twice as before. Lastly, stained cells were lightly fixed in 200 μL wash buffer 1% BSA with 0.1-0.5% […] (PFA) before immediate analysis via flow cytometry as described above.” for “reagent.”

T2 sequence (P13612 34-977, chain 1 of 2): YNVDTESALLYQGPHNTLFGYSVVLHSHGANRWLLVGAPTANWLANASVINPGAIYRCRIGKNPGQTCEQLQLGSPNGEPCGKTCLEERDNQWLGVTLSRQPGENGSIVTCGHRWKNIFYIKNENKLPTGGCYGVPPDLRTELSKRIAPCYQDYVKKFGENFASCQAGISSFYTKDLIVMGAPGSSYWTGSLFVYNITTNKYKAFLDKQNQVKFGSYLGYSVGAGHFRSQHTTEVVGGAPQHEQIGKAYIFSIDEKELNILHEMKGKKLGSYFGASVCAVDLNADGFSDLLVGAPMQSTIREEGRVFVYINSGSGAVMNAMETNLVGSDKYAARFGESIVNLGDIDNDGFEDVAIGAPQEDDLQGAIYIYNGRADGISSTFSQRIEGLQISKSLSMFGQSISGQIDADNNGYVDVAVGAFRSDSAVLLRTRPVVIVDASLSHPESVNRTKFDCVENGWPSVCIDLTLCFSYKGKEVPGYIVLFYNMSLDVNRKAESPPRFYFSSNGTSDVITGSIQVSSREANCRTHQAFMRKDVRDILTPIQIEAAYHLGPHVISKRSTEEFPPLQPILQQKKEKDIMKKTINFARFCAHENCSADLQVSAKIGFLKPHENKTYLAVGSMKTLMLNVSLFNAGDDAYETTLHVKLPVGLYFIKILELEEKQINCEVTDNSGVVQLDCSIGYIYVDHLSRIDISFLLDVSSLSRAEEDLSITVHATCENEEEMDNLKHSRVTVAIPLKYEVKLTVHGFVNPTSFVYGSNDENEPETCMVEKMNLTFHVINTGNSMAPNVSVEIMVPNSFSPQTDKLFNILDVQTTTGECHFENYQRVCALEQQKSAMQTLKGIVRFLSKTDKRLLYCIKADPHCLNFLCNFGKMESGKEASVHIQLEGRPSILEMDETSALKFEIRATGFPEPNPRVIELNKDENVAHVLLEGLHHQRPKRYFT
T2 sequence (P05556 21-728, chain 2 of 2): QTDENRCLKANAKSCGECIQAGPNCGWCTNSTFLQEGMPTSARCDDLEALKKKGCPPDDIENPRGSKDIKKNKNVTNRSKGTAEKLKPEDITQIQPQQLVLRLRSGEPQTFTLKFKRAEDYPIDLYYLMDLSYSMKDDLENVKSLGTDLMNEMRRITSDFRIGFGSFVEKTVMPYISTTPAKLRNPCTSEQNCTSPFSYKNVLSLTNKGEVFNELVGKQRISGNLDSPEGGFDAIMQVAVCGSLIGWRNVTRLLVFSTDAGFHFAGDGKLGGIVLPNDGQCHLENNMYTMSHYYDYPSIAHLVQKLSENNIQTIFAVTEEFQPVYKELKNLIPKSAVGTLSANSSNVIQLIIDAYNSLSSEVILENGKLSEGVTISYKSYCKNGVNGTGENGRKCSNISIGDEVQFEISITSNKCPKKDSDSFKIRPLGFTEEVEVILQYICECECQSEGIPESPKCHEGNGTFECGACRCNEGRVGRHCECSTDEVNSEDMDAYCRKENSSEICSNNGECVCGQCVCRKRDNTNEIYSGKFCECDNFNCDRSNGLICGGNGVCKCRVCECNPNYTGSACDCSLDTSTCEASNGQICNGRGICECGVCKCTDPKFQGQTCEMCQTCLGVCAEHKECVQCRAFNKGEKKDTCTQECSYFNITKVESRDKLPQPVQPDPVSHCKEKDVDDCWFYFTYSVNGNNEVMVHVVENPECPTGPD
T1 sequence (P13612 34-1032, chain 1 of 2): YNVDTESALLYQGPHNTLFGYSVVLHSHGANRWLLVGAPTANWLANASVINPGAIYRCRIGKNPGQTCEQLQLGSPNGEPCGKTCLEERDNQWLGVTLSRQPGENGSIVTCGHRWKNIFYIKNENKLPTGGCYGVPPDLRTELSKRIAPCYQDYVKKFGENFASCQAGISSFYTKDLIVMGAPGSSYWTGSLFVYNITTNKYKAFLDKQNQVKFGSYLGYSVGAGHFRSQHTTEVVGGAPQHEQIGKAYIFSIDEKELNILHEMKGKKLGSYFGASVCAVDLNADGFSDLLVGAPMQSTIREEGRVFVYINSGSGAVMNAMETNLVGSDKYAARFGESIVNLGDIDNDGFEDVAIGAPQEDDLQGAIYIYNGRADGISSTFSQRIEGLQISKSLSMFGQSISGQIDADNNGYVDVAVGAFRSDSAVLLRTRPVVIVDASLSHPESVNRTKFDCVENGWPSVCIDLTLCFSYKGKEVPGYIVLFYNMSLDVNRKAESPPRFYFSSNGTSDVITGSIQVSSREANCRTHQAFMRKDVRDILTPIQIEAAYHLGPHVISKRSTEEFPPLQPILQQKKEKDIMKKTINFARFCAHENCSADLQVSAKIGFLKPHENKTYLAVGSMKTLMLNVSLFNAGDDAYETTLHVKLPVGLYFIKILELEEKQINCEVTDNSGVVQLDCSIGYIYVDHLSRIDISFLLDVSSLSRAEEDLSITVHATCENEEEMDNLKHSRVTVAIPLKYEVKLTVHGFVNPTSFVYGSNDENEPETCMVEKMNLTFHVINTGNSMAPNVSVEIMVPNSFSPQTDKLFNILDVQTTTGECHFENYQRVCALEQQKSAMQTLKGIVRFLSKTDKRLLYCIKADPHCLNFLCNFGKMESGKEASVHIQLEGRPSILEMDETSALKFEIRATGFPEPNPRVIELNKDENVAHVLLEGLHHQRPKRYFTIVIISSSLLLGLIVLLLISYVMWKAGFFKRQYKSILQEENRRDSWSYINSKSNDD
T1 sequence (P05556 21-798, chain 2 of 2): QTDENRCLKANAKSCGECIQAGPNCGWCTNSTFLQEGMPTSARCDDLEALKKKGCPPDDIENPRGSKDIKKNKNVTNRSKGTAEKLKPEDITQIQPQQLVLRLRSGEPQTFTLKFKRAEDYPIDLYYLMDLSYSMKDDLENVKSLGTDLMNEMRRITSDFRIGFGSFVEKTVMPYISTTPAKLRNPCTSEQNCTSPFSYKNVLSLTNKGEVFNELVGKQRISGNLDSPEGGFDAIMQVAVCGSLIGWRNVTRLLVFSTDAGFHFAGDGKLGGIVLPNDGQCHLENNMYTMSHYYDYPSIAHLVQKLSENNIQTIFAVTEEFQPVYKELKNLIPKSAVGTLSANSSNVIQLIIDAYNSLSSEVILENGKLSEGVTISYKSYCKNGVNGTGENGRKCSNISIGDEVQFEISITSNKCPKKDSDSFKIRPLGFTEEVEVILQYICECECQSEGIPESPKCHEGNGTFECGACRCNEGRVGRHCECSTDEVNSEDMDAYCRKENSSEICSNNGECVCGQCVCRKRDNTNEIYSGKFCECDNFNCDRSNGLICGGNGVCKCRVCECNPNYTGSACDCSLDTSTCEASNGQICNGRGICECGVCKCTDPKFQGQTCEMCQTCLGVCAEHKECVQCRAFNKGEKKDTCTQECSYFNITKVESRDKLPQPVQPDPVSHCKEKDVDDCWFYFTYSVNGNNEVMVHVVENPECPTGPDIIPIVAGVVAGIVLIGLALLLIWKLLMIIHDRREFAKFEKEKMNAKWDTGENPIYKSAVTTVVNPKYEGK
Integrin alpha4beta7, recombinant heterodimer, sequence (P13612 34-977, chain 1 of 2): as the sequence (P13612 34-977, chain 1 of 2) above
Integrin alpha4beta7, recombinant heterodimer, sequence (P26010 20-723, chain 2 of 2): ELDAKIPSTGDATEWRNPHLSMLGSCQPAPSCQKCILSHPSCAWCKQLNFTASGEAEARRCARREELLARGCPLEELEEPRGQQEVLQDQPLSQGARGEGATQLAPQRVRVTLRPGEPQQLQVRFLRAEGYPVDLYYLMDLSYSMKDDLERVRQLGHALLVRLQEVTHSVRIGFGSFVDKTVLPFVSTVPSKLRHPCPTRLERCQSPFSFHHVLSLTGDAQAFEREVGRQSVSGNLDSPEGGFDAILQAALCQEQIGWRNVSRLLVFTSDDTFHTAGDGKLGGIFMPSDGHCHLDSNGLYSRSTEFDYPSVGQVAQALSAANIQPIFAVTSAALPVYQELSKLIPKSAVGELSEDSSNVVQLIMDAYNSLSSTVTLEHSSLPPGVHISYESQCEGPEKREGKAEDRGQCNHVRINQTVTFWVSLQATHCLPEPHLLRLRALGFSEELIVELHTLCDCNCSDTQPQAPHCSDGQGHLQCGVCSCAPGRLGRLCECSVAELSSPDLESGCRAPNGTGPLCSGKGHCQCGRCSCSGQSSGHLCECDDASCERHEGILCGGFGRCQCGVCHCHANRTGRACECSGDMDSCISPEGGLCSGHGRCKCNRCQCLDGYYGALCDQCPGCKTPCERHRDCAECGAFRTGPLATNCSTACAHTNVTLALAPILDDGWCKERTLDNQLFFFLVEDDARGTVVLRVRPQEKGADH

Binder CGCGCCGTACTAGATGCAACCCGACTACTAACGTCGTACGAGCGCG (ssDNA, PS at three terminal linkages of each end: C*G*C*GCC...GAGC*G*C*G) [HR7A1.Tr2.S2E2.PS3] has a Kd [1] of 3.2 nM.

With CGCGCCGTACTAGATGCAACCCGACTACTAACGTCGTACGAGCGCG (ssDNA, PS at * : C*G*CGCCGTA*CTA*GA*TGCA*A*CCCGACTACTAA*CGTCGTACGAGCG*C*G) [HR7A1.Tr2.S2E2.PSA] the Kd [2] was 9.6 nM.

B1: CD8.A3 (ssDNA)
DNA: ATCCAGAGTGACGCAGCAACAGAGGTGTAGAAGTACACGTGAACAAGCTTGAAATTGTCTCTGACAGAGGTGGACACGGTGGCTTAGT
B1: no binding [3]; no binding [4].

Work on CTCCTTACTAGATGCAACCCGACTACTAACGTCGTAAGAGAG (ssDNA) [HR7A1.Tr2] yielded an IC50 [5] of 3 nM and a Kd [6] of 9.89 nM.

B2: HR7A1.Tr1 (ssDNA)
DNA: CAGCAAACCTGACCTCCTTACTAGATGCAACCCGACTACTAACGTCGTAAGAGAG
B2 showed a Kd [6] of 7.74 nM.

B3: HR7A1 (ssDNA)
DNA: ATCCAGAGTGACGCAGCAAACCTGACCTCCTTACTAGATGCAACCCGACTACTAACGTCGTAAGAGAGCCTGGACACGGTGGCTTAGT
B3 showed a Kd [7] of 5.2 nM, an IC50 [8] of 0.3 fold excess and a Kd [9] of 6.28 nM.

B4: Sgc4f (ssDNA)
DNA: ATCACTTATAACGAGTGCGGATGCAAACGCCAGACAGGGGGACAGGAGATAAGTGA
In the case of B4, the IC50 [10] is reported as greater than 3 fold excess.
